Source: paper PMC9305820
pKd: −log10 of the molar value.

Experiments:
[1] = molecular target: Transforming growth factor-β1 (TGF-β1) dimer (UniProt P01137); assay: dynamic light scattering
[2] = molecular target: Fluorescently labeled TGF-β1; assay: MST
[3] = molecular target: Transforming growth factor-β1 (TGF-β1) dimer (UniProt P01137); assay: negative-stain electron microscopy

UniProt P01137, sequence (P01137 279-390): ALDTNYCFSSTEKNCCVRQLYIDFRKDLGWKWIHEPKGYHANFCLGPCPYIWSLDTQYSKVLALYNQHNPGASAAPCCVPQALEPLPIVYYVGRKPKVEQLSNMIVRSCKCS

Work on “Bintrafusp alfa (from UniProt P37173 23-166)” yielded a stoichiometry N (BA per TGF-β1 dimer) [1] of 1, a pKd [2] of 10.26 and a stoichiometry N (TGF-β1 dimer per BA) [3] of 1.
